Reference: IntAct's records for PubMed 35115020

B1: Palmitoyltransferase ZDHHC5 (Homo sapiens), Q9C0B5 (parent)
chain: MPAESGKRFKPSKYVPVSAAAIFLVGATTLFFAFTCPGLSLYVSPAVPIYNAIMFLFVLANFSMATFMDPGIFPRAEEDEDKEDDFRAPLYKTVEIKGIQVRMKWCATCRFYRPPRCSHCSVCDNCVEEFDHHCPWVNNCIGRRNYRYFFLFLLSLTAHIMGVFGFGLLYVLYHIEELSGVRTAVTMAVMCVAGLFFIPVAGLTGFHVVLVARGRTTNEQVTGKFRGGVNPFTNGCCNNVSRVLCSSPAPRYLGRPKKEKTIVIRPPFLRPEVSDGQITVKIMDNGIQGELRRTKSKGSLEITESQSADAEPPPPPKPDLSRYTGLRTHLGLATNEDSSLLAKDSPPTPTMYKYRPGYSSSSTSAAMPHSSSAKLSRGDSLKEPTSIAESSRHPSYRSEPSLEPESFRSPTFGKSFHFDPLSSGSRSSSLKSAQGTGFELGQLQSIRSEGTTSTSYKSLANQTRNGSLSYDSLLTPSDSPDFESVQAGPEPDPPLGYTSPFLSARLAQQREAERHPRLVPTGPTHREPSPVRYDNLSRHIVASLQEREKLLRQSPPLPGREEEPGLGDSGIQSTPGSGHAPRTSSSSDDSKRSPLGKTPLGRPAVPRFGKPDGLRGRGVGSPEPGPTAPYLGRSMSYSSQKAQPGVSETEEVALQPLLTPKDEVQLKTTYSKSNGQPKSLGSASPGPGQPPLSSPTRGGVKKVSGVGGTTYEISV

Variants of: B1
Settings: with spike_sars2 S

Variant | effect of a mutation on the interaction
C134S | with no effect
